Assay results taken from paper PMC11381810.

Tests used:
[1] = target: 2:1 syntaxin:SNAP25 complex (premixed syntaxin-1A (1–265) S225C and SNAP25a (1–206) M49C) (Rattus norvegicus) (UniProt P32851); experiment: FRET or BRET; stopped-flow; donor-labelled syntaxin and acceptor-labelled SNAP25 at 1:1, unlabeled synaptobrevin titrated in excess; syntaxin and SNAP25 premixed, or SNAP25 and synaptobrevin added together to syntaxin; 37 °C
[2] = target: SNAP25a (1–206) M49C, endogenous cysteines replaced by serine (Rattus norvegicus) (UniProt P60881); experiment: FRET or BRET; stopped-flow; Alexa Fluor 488 (donor) and Alexa Fluor 647 (acceptor) on syntaxin and SNAP25; one partner fixed at 0.125 μM and the other titrated, or equimolar; 37 °C; 20 mM Hepes, 150 mM KCl, 0.1 mM TCEP, pH ~7.4
[3] = target: SNAP25a (1–206) M49C, endogenous cysteines replaced by serine (Rattus norvegicus) (UniProt P60881); experiment: FRET or BRET + SEC; equimolar stopped-flow titration at 37 °C (kobs^2 hyperbolic) and size-exclusion chromatography of the 1:1 mix after overnight incubation at 4 °C (excess of free SNAP25)
[4] = target: syntaxin-1A (1–265) S225C, endogenous cysteines replaced by serine (Rattus norvegicus) (UniProt P32851); experiment: FRET or BRET; stopped-flow; Alexa Fluor 488 (donor) and Alexa Fluor 647 (acceptor) on syntaxin and SNAP25; one partner fixed at 0.125 μM and the other titrated, or equimolar; 37 °C; 20 mM Hepes, 150 mM KCl, 0.1 mM TCEP, pH ~7.4

## synaptobrevin 2 (1–96) S61C (from UniProt P63045 1-96) (domain or fragment)
[1]
  rate constant of the irreversible step (first, exponential phase): 7520 M⁻¹ s⁻¹

## syntaxin-1A (1–265) S225C, endogenous cysteines replaced by serine (from UniProt P32851 1-265) (domain or fragment)
[2]
  intercept of kobs over [syntaxin]0: 0.0032
[3]
  stoichiometry N (syntaxin per SNAP25): 2

## SNAP25a (1–206) M49C, endogenous cysteines replaced by serine (from UniProt P60881-2 1-206) (natural protein)
[4]
  intercept of kobs over [SNAP25]0: 0.019
